# Source: US10900063B2, “Measurement of Lp-PLA2 activity” (ASAHI KASEI PHARMA CORPORATION, priority 2016, dated 2021)
# Experiment: PLD activity (kcat/Km) of lyso-PAF-PLD and site-specific mutants against lyso-PAF
# Format: biochemical
# Conditions: substrate lyso-PAF 0 to 5 mM, pH 7.5, 37° C.
# Description: As a result, the pre-mutation PLD activity was 1385 (s^−1 mM^−1), but the mutant having G substituted for the M in the 45th position of SEQ ID NO: 9 (called M45G) and the similarly-named mutants M45A, M45L and M45D had PLD activities of 3059, 11411, 3284 and 4557 (s^−1mM^−1), respectively.
# As a result, the PLD activity was 1385 (s^−1mM^−1) before the mutation, but the mutant having G substituted for F in the 257th position of […] (called F257G) and the similarly-named mutants F257E, F257R, F257K and F257W had PLD activities 1200, 1000, 1080, 1020 and 1320, respectively.
# The PLD activity of the lyso-PAF-PLD mutants obtained by site-specific mutations was measured as follows. 1.211 g of Tris, 14.7 mg of calcium chloride dihydrate (Wako Pure Chemical Industries, Ltd.), 20 mL of lyso-PAF solution and 2 mL of 1% TODB solution were dissolved in 60 mL of purified water, the pH was adjusted to 7.5 (25° C.) with 1 N HCl, 4 mL of 100 U/mL choline oxidase, 4 mL of 100 U/mL peroxidase solution and 2 mL of 1% 4-AA solution were added and dissolved, and the total was brought to 100 mL with purified water to obtain a PLD activity measurement reagent for lyso-PAF (reaction reagent mixture). The lyso-PAF solution was adjusted so that the lyso-PAF concentration in the reaction reagent mixture was 0 to 5 mM. 3 mL of the reaction reagent mixture was pre-heated for 5 minutes at 37° C., and mixed with 50 μL of a solution of the lyso-PAF-PLD mutant with the introduced site-specific mutation diluted appropriately with 10 mM Tris-HCl (pH 7.5) to initiate a reaction, and the change in absorbance at 546 nm was measured for 1 minute between 8 and 9 minutes after initiation of the reaction. The activity value (μmole/min) was calculated given 36 (cm^2/μmole) as the millimolar extinction coefficient of the quinoneimine dye at 546 nm. The protein content (mg/mL) was calculated by the Bradford method using bovine serum albumin as the standard. Km and kcat were calculated by the Michaelis-Menten formula in accordance with the methods described in the aforementioned Theory and Practice on Enzymes and other Proteins [Tanpakushitsu/Kouso no kiso jikkenhou] and in Voet's Basic Biochemistry (Fourth Ed.) and the like. For purposes of calculation, the molecular weight of the enzyme was given as 33583.
Molecule,Km [µM],kcat [s⁻¹]
"M45G: lyso-PAF-PLD mutant, G substituted for M in the 45th position of SEQ ID NO: 9 (protein) MTTRTTDNPWLDARVLNMAHAGGENEAPANTLYAFKRAVKLGANGLELDVQSTKDDQLVVIHNATVDQTTDGTGKVRDLTFEQVHELDAAYNFIPGRHAVPGEPPESYPLRGVRTGEKKPPPGYQPSDFAIPKLADVLEAFPRTPINIEIKGTSDADIPSFLHNAKLLARLLKKTGRTDFIVTSFNDLAVAKFHLLAPDIPIAPGMAGLAAYFLLGVKPMHGTVALQIPVRYQGLEIATPEFIRRAHADGYAVHVWFSGTAPDDEATYNRIIDSCADGLMPAYPALLERILDERGIERPGRPGVDPCG",27,82
"M45D: lyso-PAF-PLD mutant, D substituted for M in the 45th position of SEQ ID NO: 9 (protein) MTTRTTDNPWLDARVLNMAHAGGENEAPANTLYAFKRAVKLGANDLELDVQSTKDDQLVVIHNATVDQTTDGTGKVRDLTFEQVHELDAAYNFIPGRHAVPGEPPESYPLRGVRTGEKKPPPGYQPSDFAIPKLADVLEAFPRTPINIEIKGTSDADIPSFLHNAKLLARLLKKTGRTDFIVTSFNDLAVAKFHLLAPDIPIAPGMAGLAAYFLLGVKPMHGTVALQIPVRYQGLEIATPEFIRRAHADGYAVHVWFSGTAPDDEATYNRIIDSCADGLMPAYPALLERILDERGIERPGRPGVDPCG",34,157
"M45L: lyso-PAF-PLD mutant, L substituted for M in the 45th position of SEQ ID NO: 9 (protein) MTTRTTDNPWLDARVLNMAHAGGENEAPANTLYAFKRAVKLGANLLELDVQSTKDDQLVVIHNATVDQTTDGTGKVRDLTFEQVHELDAAYNFIPGRHAVPGEPPESYPLRGVRTGEKKPPPGYQPSDFAIPKLADVLEAFPRTPINIEIKGTSDADIPSFLHNAKLLARLLKKTGRTDFIVTSFNDLAVAKFHLLAPDIPIAPGMAGLAAYFLLGVKPMHGTVALQIPVRYQGLEIATPEFIRRAHADGYAVHVWFSGTAPDDEATYNRIIDSCADGLMPAYPALLERILDERGIERPGRPGVDPCG",23,147
"M45A: lyso-PAF-PLD mutant, A substituted for M in the 45th position of SEQ ID NO: 9 (protein) MTTRTTDNPWLDARVLNMAHAGGENEAPANTLYAFKRAVKLGANALELDVQSTKDDQLVVIHNATVDQTTDGTGKVRDLTFEQVHELDAAYNFIPGRHAVPGEPPESYPLRGVRTGEKKPPPGYQPSDFAIPKLADVLEAFPRTPINIEIKGTSDADIPSFLHNAKLLARLLKKTGRTDFIVTSFNDLAVAKFHLLAPDIPIAPGMAGLAAYFLLGVKPMHGTVALQIPVRYQGLEIATPEFIRRAHADGYAVHVWFSGTAPDDEATYNRIIDSCADGLMPAYPALLERILDERGIERPGRPGVDPCG",12,136
